Changes are numbered by the printed parent chain.
T1: huCTLA-4 ECD (his-tag) (human, UniProt P16410 37-162)
T1 construct: also called HX1 hCTLA4 his; HX1 huCTLA4 his; not shown: his-tag
T1 sequence: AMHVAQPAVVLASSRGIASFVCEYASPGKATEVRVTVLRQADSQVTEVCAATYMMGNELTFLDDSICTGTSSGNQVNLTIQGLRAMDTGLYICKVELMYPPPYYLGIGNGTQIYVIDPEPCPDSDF

T2: huCTLA-4 expressed on cells (human, UniProt P16410 36-223)
T2 construct: the construct in the cells is not described; also called HuCTLA-4-expressing CHO cells; huCTLA-4-expressing Jurkat effector cells
T2 sequence: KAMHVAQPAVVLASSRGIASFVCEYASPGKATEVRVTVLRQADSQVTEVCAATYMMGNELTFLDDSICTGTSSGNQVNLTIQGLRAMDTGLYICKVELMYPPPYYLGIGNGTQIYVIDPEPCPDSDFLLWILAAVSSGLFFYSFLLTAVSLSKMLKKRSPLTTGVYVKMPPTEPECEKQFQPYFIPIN

T3: huCTLA-4 (human, UniProt P16410 36-161)
T3 construct: also called human CTLA (huCTLA) antigen; huCTLA4 recombinant protein
T3 sequence: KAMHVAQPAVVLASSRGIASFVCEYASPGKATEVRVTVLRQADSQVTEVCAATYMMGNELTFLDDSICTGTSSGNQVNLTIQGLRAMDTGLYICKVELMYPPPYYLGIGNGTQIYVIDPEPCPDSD

T4: TIGIT on 293T-TIGIT cells (UniProt Q495A1 22-244, limits assumed)
T4 construct: whole, on cells
T4 sequence (looked up): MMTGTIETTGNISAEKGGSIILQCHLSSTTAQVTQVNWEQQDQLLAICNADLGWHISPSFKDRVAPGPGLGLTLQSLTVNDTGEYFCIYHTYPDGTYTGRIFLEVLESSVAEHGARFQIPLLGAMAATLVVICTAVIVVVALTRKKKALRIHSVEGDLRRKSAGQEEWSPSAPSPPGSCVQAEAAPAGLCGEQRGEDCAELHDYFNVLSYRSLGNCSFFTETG

B1: JS007-11 (antibody, V domains shown)
VH: EVQLQQSGAELVKSGASVKLSCTGSGFNIKDTYMHWVKQRPEEGLEWIGRIDPANGNTKSDPKFQGKATITADTSSNTAYLQLSSLTSVDTAVYYCARSMTTDPFTYWGQGTLVTVSS
VL: DIVMTQSQKFMSTSVGDSVSVTCKASQNVGTYVAWYQQKPGQSPKPLIYSTSYRYSGVPDRFTGSGSGTDFTLTISNVQSEDLAEYFCHQYDTYPLTFGAGTKLELK
notes: also called chimeric antibody JS007-11 (4B7.1-1 VH with 4B7.1-1 VL)
B2: JS007-1 (antibody, V domains shown)
VH: DVQLQESGQGLVKPSQSLSLTCSVTGYSITSGYYWNWIRQFPGNKLEWLGYIGYDGSNYYNPSLKNRISITRDTSKNQFFLKLNSVTSEDTATYFCARNYYSGYFDFWGQGTTLTVSS
VL: DIVMTQSQKFMSTSVGDRVSVTCKASQIVGSYVAWYQQKLGQSPKALIYSTSYRHSGVPDRFTGSGSGTDFTLTISNVQSEDLAEYFCQQHHLPLTFGAGTKLEIK
notes: also called chimeric antibody JS007-1 (1A5.1 VH with 1A5.1 VL)
B3: 1A5.1 (antibody, V domains shown)
VH: B2 VH
VL: B2 VL
notes: Murine hybridoma antibody
B4: JS007-3 (antibody, V domains shown)
VH: B2 VH
VL: B1 VL
notes: also called JS007-3 chimeric antibody
B5: JS007-15 (antibody, V domains shown)
VH: B2 VH with Q9P, G26A, L49M, Y59N, S88T, F95Y, N99D, F107S
VL: B1 VL
notes: also called JS007-15 chimeric antibody
B6: 5B9.1 (antibody, V domains shown)
VH: EVQLQQSGPELVKPGASVKMSCKASGYTFTDYYMKWMKQSHGKSLEWIGHINPNNGDTFYNQKFTGKATLTVDKSSSTASMHLNSLTSEDSAVYYCARGGDGRGTWFAYWGQGTLVTVSS
VL: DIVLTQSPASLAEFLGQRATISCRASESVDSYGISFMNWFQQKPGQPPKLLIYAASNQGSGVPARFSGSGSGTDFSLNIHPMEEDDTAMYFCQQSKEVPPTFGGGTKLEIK
notes: Murine hybridoma antibody
B7: JS007-20 (antibody, V domains shown)
VH: B6 VH
VL: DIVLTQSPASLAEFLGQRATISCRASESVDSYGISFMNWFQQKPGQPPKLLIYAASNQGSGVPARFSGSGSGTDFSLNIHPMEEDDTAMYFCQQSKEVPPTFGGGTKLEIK
notes: also called JS007-20 chimeric antibody
B8: 3E6.1 (antibody, V domains shown)
VH: EVKLVESGGGLVQPGGSLRLSCATSGFTFTDYYMSWVRQPPGKALEWLGFIRNKANGFTAEYSASVKGRFTISRDNSQSILYLQMNTLRAEDSATYYCARDSLAYPHYYAMDYWGQGTSVTVSS
VL: QIVLTQSPALMSASPGEKVTMTCSASSSVSYMYWYQQKPRSSPKPWIYLTSNLASGVPVRFSGSGSGTSYSLTISSMEAEDAATYYCQQWSSNSFTFGSGTKLEIK
notes: Murine hybridoma antibody

Key:
huCTLA-4 ECD (his-tag) [1] = target: T1, huCTLA-4 ECD (his-tag); experiment: ELISA: huCTLA-4 his coated at 1.0 µg/mL, antibody 2.5-fold dilutions from 1000 ng/mL, HRP goat anti-human IgG (Fc), OD 450 nm; unit from the axis 'Log ng/mL'
Description: HX1 hCTLA4 his was diluted with PBS (Hyclone) to 1.0 μg/mL, and the dilution was added to a microplate at 100 μL/well. The plate was let stand in an incubator at 37° C. and coated for 90 min and then washed, and 2% BSA was added to the plate at 200 μL/well. The plate was incubated in an incubator at 37° C. for 90 min and then washed. The chimeric antibodies in Table 3 and the control antibody (ipilimumab) were diluted with a diluent (2% BSA) to 1000 ng/mL. The dilution performed each time was not higher than 10-fold. Then, the chimeric antibodies and the control antibody were serially diluted 2.5-fold on a sample dilution plate. All the chimeric antibody solutions and the control antibody solution were added to a microplate at 100 μL/well. The plate was incubated in an incubator at 37° C. for 60 min and then washed. A horseradish peroxidase (HRP)-conjugated goat anti-human antibody IgG (Sigma, Catalog No. A0170) (Fc specific) was diluted 5000-fold with 2% BSA, and the dilution was added to the microplate at 100 μL/well. The plate was incubated in an incubator at 37° C. for 60 min and then washed. The color development solution TMB was added at 100 μL/well, during which bubbles were avoided. […] Reading (wavelength: 450/620 nm) was done within 10 min using a microplate reader.

[2] = target: T2, huCTLA-4 expressed on cells; experiment: FACS: huCTLA-4-expressing CHO cells, antibody 3-fold dilutions from 10 µg/mL, PE anti-human IgG; unit from the axis 'log(JS007 concentration (ng/mL))'
Description: (§1) 6.2 FACS Detection of Binding of Chimeric Antibodies to huCTLA-4-Expressing Cells HuCTLA-4-expressing cells (constructed in-house by Junmeng; CHO from ATCC) were co-incubated with each of the chimeric antibodies in Table 3 and the control antibody (ipilimumab) (serially diluted 3-fold from an initial concentration of 10 μg/mL) at room temperature for 30 min, and then a fluorescent secondary antibody (PE-anti human IgG) was added to detect the binding of the chimeric antibodies to the huCTLA-4-expressing cells.

BTLA on 293T-BTLA cells = target: T5, BTLA on 293T-BTLA cells (UniProt Q7Z6A9 31-289, limits assumed); experiment: flow cytometry on 293T-BTLA cells
T5 construct: whole, on cells
Description: (§2) Then the above cell mixture was incubated with 5 μL of APC-labeled murine secondary antibody (Southern Biotech) at 4° C. for 20 min, and the secondary antibody bound onto the cells was detected. The control antibody was selected from commercially available CTLA4 monoclonal antibody L3D10 (BioLegend) and TIGIT monoclonal antibody MBSA43 (eBioscience).

huCTLA-4 [3] = target: T3, huCTLA-4; experiment: ForteBio
[4] = target: T4, TIGIT on 293T-TIGIT cells; experiment: flow cytometry on 293T-TIGIT cells
Description: as §2

huCTLA-4 [5] = target: T3, huCTLA-4; experiment: FACS blocking, huCTLA4 recombinant protein on CD80-expressing CHO cells; CD80-expressing CHO cells
Description: (§3) The chimeric antibodies in Table 3 and the control antibody ipilimumab (serially diluted 3-fold from an initial concentration of 30 μg/mL) were each added to CD80- or CD86-expressing CHO cells (constructed in-house by Junmeng) together with a certain concentration of huCTLA4 recombinant protein. After they were co-incubated at room temperature for 30 min, a fluorescent secondary antibody (PE-anti human IgG4) (Southern biotech) was added to determine the abilities of the chimeric antibodies to block the binding of huCTLA-4 to the CD80/CD86-expressing cells.

huCTLA-4 ECD (his-tag) [6] = target: T1, huCTLA-4 ECD (his-tag); experiment: ELISA, coated huCTLA-4 his
Description: HX1 hCTLA4 his was diluted with PBS (Hyclone) to 1.0 μg/mL, and the dilution was added to a microplate at 100 μL/well. The plate was let stand in an incubator at 37° C. and coated for 90 min and then washed, and 2% BSA was added to the plate at 200 μL/well. The plate was incubated in an incubator at 37° C. for 90 min and then washed. The humanized anti-CTLA-4 antibodies in Table 4 and the control antibody (ipilimumab) were diluted with a diluent (2% BSA) to 1000 ng/mL. The dilution performed each time was not higher than 10-fold. Then, the humanized antibodies and the control antibody were serially diluted 2.5-fold on a sample dilution plate. All the humanized antibody solutions and the control antibody solution were added to a microplate at 100 μL/well. The plate was incubated in an incubator at 37° C. for 60 min and then washed. An HRP-conjugated goat anti-human antibody IgG (Fc specific) was diluted 5000-fold with 2% BSA, and the dilution was added to the microplate at 100 μL/well. The plate was incubated in an incubator at 37° C. for 60 min and then washed. The color development solution TMB was added at 100 μL/well, during which bubbles were avoided. Color development was allowed at 37° C. for 15 min in the dark and then terminated by adding 2 M hydrochloric acid solution at 100 μL/well, during which bubbles were avoided. Reading (wavelength: 450/620 nm) was done within 10 min using a microplate reader.

[7] = target: T2, huCTLA-4 expressed on cells; experiment: FACS on huCTLA-4-expressing CHO cells
Description: as §1

huCTLA-4 [8] = target: T3, huCTLA-4; experiment: FACS blocking, huCTLA4 recombinant protein on CD86-expressing CHO cells; CD86-expressing CHO cells
Description: as §3

huCTLA-4 ECD (his-tag) [9] = target: T1, huCTLA-4 ECD (his-tag); experiment: competition ELISA, coated huCTLA-4 his, competitor hCD80 Fc
Description: HX1 huCTLA4 his was diluted with PBS (Hyclone) to 1.0 μg/mL, and the dilution was added to a microplate at 100 μL/well. The plate was let stand in an incubator at 37° C. and incubated for 90 min and then washed, and 2% BSA was added to the plate at 200 μL/well. The plate was incubated in an incubator at 37° C. for 90 min and then washed. MX2 hCD80 Fc was diluted with 2% BSA to 5.0 μg/mL, and the dilution was used to dilute samples. The chimeric antibodies and the control antibody ipilimumab were diluted to 100 μg/mL. The dilution performed each time was not higher than 10-fold. Then, the chimeric antibodies and the control antibody were serially diluted 2.5-fold on a sample dilution plate. All the chimeric antibody solutions and the control antibody solution were added to a microplate at 100 μL/well. The plate was incubated in an incubator at 37° C. for 90 min and then washed. An HRP-conjugated goat anti-mouse antibody IgG (Fc specific) (Sigma, Catalog No. A2554) was diluted 5000-fold with 2% BSA, and the dilution was added to the microplate at 100 μL/well. The plate was incubated in an incubator at 37° C. for 60 min and then washed. The color development solution TMB was added at 100 μL/well, during which bubbles were avoided. Color development was allowed at 37° C. for 15 min in the dark and then terminated by adding 2 M hydrochloric acid solution at 100 μL/well, during which bubbles were avoided. Reading (wavelength: 450/620 nm) was done within 10 min using a microplate reader.

Binder	binding result (BTLA on 293T-BTLA cells)	Kd (huCTLA-4 [3]) [nM]	binding result [4]	IC50 (huCTLA-4 [5]) [µg/mL]	EC50 (huCTLA-4 ECD (his-tag) [6]) [µg/mL]	EC50 [7] [µg/mL]	IC50 (huCTLA-4 [8]) [ng/mL]	IC50 (huCTLA-4 ECD (his-tag) [9]) [µg/mL]	also measured
B1	–	–	–	–	–	–	–	–	EC50 (huCTLA-4 ECD (his-tag) [1]): ~4010 µg/mL
B2	–	–	–	–	–	–	–	–	EC50 (huCTLA-4 ECD (his-tag) [1]): ~788 µg/mL; EC50 [2]: 0.00418 µg/mL
B3	no binding (tested: 1 µg of hybridoma antibody)	1.74	no binding (tested: 1 µg of hybridoma antibody)	–	–	–	–	–	–
B4	–	–	–	0.000699	0.0172	0.249	0.196	0.19	–
B5	–	–	–	0.000398	0.0197	0.189	0.0816	0.19	–
B6	no binding (tested: 1 µg of hybridoma antibody)	< 0.001	no binding (tested: 1 µg of hybridoma antibody)	–	–	–	–	–	–
B7	–	–	–	0.00121	0.0129	0.486	0.253	0.187	–
B8	no binding (tested: 1 µg of hybridoma antibody)	< 0.001	no binding (tested: 1 µg of hybridoma antibody)	–	–	–	–	–	–
